In experiment [1] the target is T1, mouse TPBG (full length, on cells) (mouse, UniProt Q9Z0L0 32-426).
T1 construct: whole, on cells; On transfected CHO-K1 cells; also called mTPBG; CHO-K1-mTPBG
T1 sequence (looked up): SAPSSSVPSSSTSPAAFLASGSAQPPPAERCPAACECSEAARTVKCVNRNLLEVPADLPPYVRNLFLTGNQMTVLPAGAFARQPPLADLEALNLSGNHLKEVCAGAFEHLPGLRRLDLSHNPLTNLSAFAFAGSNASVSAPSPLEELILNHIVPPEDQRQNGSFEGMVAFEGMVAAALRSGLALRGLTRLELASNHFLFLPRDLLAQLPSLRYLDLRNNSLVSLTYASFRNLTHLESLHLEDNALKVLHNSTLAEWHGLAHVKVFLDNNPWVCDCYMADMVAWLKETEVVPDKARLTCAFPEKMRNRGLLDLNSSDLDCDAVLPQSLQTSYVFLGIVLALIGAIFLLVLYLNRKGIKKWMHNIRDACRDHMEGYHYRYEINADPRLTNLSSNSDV
The experiment is described as follows: FACS on CHO-K1-mTPBG cells. The text has this:
The stable cell lines CHO-k1-hTPBG, CHO-k1-cTPBG, CHO-k1-mTPBG (i.e. the CHO-k1-hTPBG 3A2F1, CHO-k1-cTPBG 3F13G4 and CHO-k1-mTPBG 3A3 shown in table 7) and CHO-K1 cells were expanded to a 90% of confluency in T-75 cell culture flasks, the culture medium were removed, and cells were then rinsed twice with HBSS buffer (Hanks Balanced Salt Solution, purchased from Invitrogen) and lysed with enzyme-free cell dissociation buffer (Versene solution purchased from Life technology) and harvested. Harvested cells were rinsed with HBSS buffer twice and counted before diluting with HBSS buffer to 2×10⁶ cells /mL, and 10% goat serum blocking buffer was then added, wherein the percentage is the mass percentage. Cells were incubated on ice for 30 min, and then washed twice with HBSS buffer by centrifugation. The harvested cells were resuspended with FACS buffer (HBSS+1% BSA, wherein the percentage is mass percentage) to a concentration of 2×10⁶ cells /mL. 100 μL per well of the cells was aliquoted to 96-well FACS reaction plates, and 100 μL per well of test sample—the purified TPBG antibody obtaining from Embodiment 2 was added before incubating on ice for 2 h. The plate was washed with the FACS buffer twice by centrifugation, and 100 μL per well of fluorescence (Alexa 488) labeled secondary antibody (purchased from Invitrogen) was then added and incubated on ice for 1 h. The plate was washed with the FACS buffer for three times by centrifugation, follow by resuspending in 100 μL of fixation buffer (4% (v/v) paraformaldehyde). Cells were washed with FACS buffer twice after 10 min, follow by resuspending with 100 μL of FACS buffer. The results were measured and analyzed by FACS (FACS Calibur, purchased from BD). Data analysis was performed by software (CellQuest) to obtain mean fluorescence intensity (MFI) of the cells, follow by calculating EC50 value by software (GraphPad Prism) analysis and data fitting. The analysis results were shown in Table 8 and FIGS. 7-10, and data in FIGS. 7-10 show the mean fluorescence intensity (MFI) of cells.

The target of experiment [2] is T2, biotinylated recombinant TPBG protein (Homo sapiens (Human), UniProt Q13641 32-355, Biotinylated; the number and positions of the biotin labels are not stated and the letters do not carry them.).
T2 sequence: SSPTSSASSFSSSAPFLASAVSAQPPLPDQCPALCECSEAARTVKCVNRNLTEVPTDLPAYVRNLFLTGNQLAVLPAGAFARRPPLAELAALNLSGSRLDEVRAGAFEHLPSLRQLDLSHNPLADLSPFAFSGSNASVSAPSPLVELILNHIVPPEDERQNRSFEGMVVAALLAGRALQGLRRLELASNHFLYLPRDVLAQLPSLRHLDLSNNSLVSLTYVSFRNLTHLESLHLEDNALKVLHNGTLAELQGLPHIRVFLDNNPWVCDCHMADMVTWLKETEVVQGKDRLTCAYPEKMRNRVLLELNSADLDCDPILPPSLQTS
The experiment can be described thus: competitive ELISA; row antibody 5 ug/mL; competitor: coated 52C9E9F6. The protocol: (§1) The purified antibodies to be tested were diluted to 1 μg/mL using PBS, and coated with high-adsorption of 96-well microplates at […]. After overnight coating at 4[…], 250 μL of blocking buffer (PBS containing 0.01% (v/v) Tween20 and 1% (w/w) BSA) was added to block coating at room temperature for 1 h, and 0.05 μg/mL of biotinylated recombinant TPBG protein was added to each well. Meanwhile, 5 μg/mL final concentration of competitive antibodies, i.e. the purified antibodies obtained from Embodiment 2 with the clone number of 12B12C7C3, 5G4H10G5, 37H9C5G2, 39A11G5F2, 52C9E9F6, 28D4E6A9, 36A10D8B12, 99E12C7H1, 103E2E9C2 and 106D5G3D10 were added and incubated at 25-37° C. for 1-2 h. The plates were washed three times with plate-washing buffer (PBS containing 0.01% (v/v) Tween20) and HRP (horseradish peroxidase)-labeled streptavidin (purchased from Sigma) was added. After incubating at 37° C. for 0.5 h, the plates were washed three times with plate-washing buffer (PBS containing 0.01% (v/v) Tween20), and 100 μL of TMB substrate was added to each well and the plates were further incubated at room temperature for 30 min prior to adding 100 μL of stop buffer (1.0N HCl) to each well. A₄₅₀ₙₘ values were read using an ELISA microplate reader (SpectraMax 384plus purchased from Molecular Device) and results were shown in FIG. 6. The higher the values of the competition rate, the closer the antigen surface of the two antibodies are.

For experiment [3], the target named is T2, biotinylated recombinant TPBG protein. The experiment is described as follows: competitive ELISA; row antibody 5 ug/mL; competitor: coated 103E2E9C2. The protocol: as §1
(In general: ELISA stands for enzyme-linked immunosorbent assay.)

Experiment [4] has the same target. The experiment can be described thus: competitive ELISA; row antibody 5 ug/mL; competitor: coated 99E12C7H1. Here is the method:
as §1

The target is the same in experiment [5]. The experiment is described as follows: competitive ELISA; row antibody 5 ug/mL; competitor: coated 106D5G3D10. The protocol: as §1
For experiment [6] the target is unchanged. The experiment can be described thus: competitive ELISA; row antibody 5 ug/mL; competitor: coated 36A10D8B12. Here is the method: as §1

B1: 12B12C7C3 (antibody, V domains shown)
VH: DVQLVESGGGLVQPGGSRKLSCAASGFTFSNFGMHWVRQAPEKGLEWVAYISSGSTSFYYADTVKGRFTISRDNPKNTLFLQMTSLRSEDTAMYYCSRTNSLLRGFFDAWGAGTTVTVSS
VL: DIVLTQSPASLAVSLGQRATISCRASQSVSSSSYTYLHWYQQKPGQPPKLLIKSASNLESGVPARFSGTGSGTDFTLNIHPVEEEDTATYYCQHSWEIPLTFGAGTKLELK
notes: Mouse hybridoma antibody purified from culture supernatant; also called TPBG antibody; lead antibody
As to B1, the binding result in experiment [1] is on record as “no binding”. In addition, the competition rate was found to be 4% in experiment [2]; 0% in experiment [3]; 25% in experiment [4]; 96% in experiment [5]; 3% in experiment [6].

B2: 106D5G3D10 (antibody, V domains shown)
VH: EVQLVESGGGLVKPGGSLKLSCAASGFTFSDYGMHWVRQAPEKGLEWVGYISSGTYVVYYADTVKGRFTISRDNAKNTLFLQMTSLRSEDTAIYYCSTYGSNPFDYWGQGTTLTVSS
VL: QLVLTQSPAIMSASPGEKVTITCSATSSVSSMHWFQQKPVTSPKLWIYSTSNLASGVPTRFSGSGSGTSYSLTISRMEAEDAATYYCQQRSGYPPIFTFGSGTKLEIK
notes: as for B1
Take B2: the binding result in experiment [1] is “no binding”. The competition rate in experiment [2] turned out to be 0%; in experiment [3], 0%; in experiment [4], 11%; in experiment [5] it was 94%; in experiment [6] it was 1%.
